Test results: the MegaScale stability set (Tsuboyama et al. 2023)

B1: r11_951_TrROS_Hall (parent)
chain: KKKYVIKVYFEDTGKEVEIEAESKEEALEAAKRLAEELGLKIKKVEIYP
B2: EEHEE_rd3_0130 (parent)
chain: TKIIVNGKTFTAPTEEEAQKIAEKLAKKAGLTVHKKNGTFELK

Variants of: B1
Experiment: folding stability dG (cDNA display proteolysis); higher = more stable
Conditions: PBS, room temperature

Folding stability dG [kcal/mol]: each site, then its substitutions
K43: E 4.35 | N 4.29 | V 4.22 | R 4.64 | H 4.33 | M 4.44 | S 4.15 | P 2.93 | Q 4.26 | G 4.25 | W 4.81 | T 4.32 | F 4.53 | I 4.43 | L 4.36
K44: F 4.3 | I 4.21 | P 2.69 | E 4.25 | W 4.24 | H 4.47 | A 4.26 | Y 4.34 | R 4.4 | Q 4.34 | D 3.95 | V 4.17 | G 4.12 | L 4.14 | M 4.31 | N 4.41 | T 4.17 | S 4.42 | C 4.11
I47: A 4.17 | W 4.49 | F 4.32 | C 4.13 | E 4.33 | L 4.48 | T 4.17 | P 4.04 | H 4.35 | K 3.7 | Q 4.25 | M 4.53 | S 4.24 | Y 4.47 | V 4.33 | N 3.89 | R 3.79 | D 3.99 | G 4.06
E46: R 4.16 | A 4.32 | C 4.15 | I 4.47 | L 4.38 | T 4.36 | Y 4.61 | W 4.47 | D 4.38 | V 4.66 | G 3.71 | H 4.53 | S 4.33 | Q 4.26 | M 4.49 | K 4.22 | F 4.64 | P 2.41 | N 4.19
P49: L 4.62 | H 4.93 | V 4.45 | E 4.66 | W 4.59 | N 4.68 | M 4.69 | D 4.59 | F 4.6 | I 4.72 | R 4.5 | C 4.52 | K 4.5 | A 4.33 | T 4.62 | S 4.62 | G 4.49 | Y 4.78 | Q 4.71
Y48: V 4.45 | N 4.45 | I 4.43 | R 4.36 | P 4.09 | Q 4.37 | M 4.4 | H 4.44 | F 4.64 | W 4.51 | S 4.2 | C 4.46 | T 4.52 | A 4.25 | K 4.2 | G 4.33 | D 4.13 | E 4.1 | L 4.44
V45: H 4.08 | M 4.47 | F 4.48 | W 4.59 | T 4.16 | I 3.98 | P 2.52 | Q 3.87 | R 2.97 | E 3.18 | C 4.16 | A 3.96 | S 3.94 | Y 4.45 | G 2.79 | K 3.16 | N 3.32 | D 2.62 | L 4.08

Variants of: B2
Experiment: as above
Conditions: PBS, room temperature

Folding stability dG [kcal/mol]: each site, then its substitutions
K2: W 0.519 | H 0.273 | L 0.93 | Y 0.641 | R 0.793 | Q 0.574 | N 0.108 | F 0.565 | P 0.169 | A 0.458 | E 0.085 | M 0.746 | S 0.364 | G -0.359 | C 1.16 | V 0.501 | D 0.156 | I 0.742 | T 0.448
T1: Q 0.151 | A 0.581 | L 0.508 | H 1.05 | E -0.989 | R 0.322 | Y 2.19 | N 0.378 | F 2.15 | V 1.28 | G 0.627 | M 0.565 | P 0.553 | D -0.934 | C 0.97 | W 2.99 | S 0.636 | K 0.145 | I 1.37
